According to patent US20220034884A1 (GOVERNMENT OF THE UNITED STATES OF AMERICA AS REPRESENTED …, published 2022):

Target: T1, C-terminal GFP-tagged ACE2 fusion protein stably expressed on HEK293T cells (ACE2-GFP HEK293T) (UniProt Q9BYF1 18-805)
T1 construct: also called ACE2-GFP HEK293T clone 2; ACE2-GFP HEK293T clone 1
Experiment: live-cell confocal imaging of ACE2-GFP HEK293T cells

T1 sequence (Q9BYF1 18-805): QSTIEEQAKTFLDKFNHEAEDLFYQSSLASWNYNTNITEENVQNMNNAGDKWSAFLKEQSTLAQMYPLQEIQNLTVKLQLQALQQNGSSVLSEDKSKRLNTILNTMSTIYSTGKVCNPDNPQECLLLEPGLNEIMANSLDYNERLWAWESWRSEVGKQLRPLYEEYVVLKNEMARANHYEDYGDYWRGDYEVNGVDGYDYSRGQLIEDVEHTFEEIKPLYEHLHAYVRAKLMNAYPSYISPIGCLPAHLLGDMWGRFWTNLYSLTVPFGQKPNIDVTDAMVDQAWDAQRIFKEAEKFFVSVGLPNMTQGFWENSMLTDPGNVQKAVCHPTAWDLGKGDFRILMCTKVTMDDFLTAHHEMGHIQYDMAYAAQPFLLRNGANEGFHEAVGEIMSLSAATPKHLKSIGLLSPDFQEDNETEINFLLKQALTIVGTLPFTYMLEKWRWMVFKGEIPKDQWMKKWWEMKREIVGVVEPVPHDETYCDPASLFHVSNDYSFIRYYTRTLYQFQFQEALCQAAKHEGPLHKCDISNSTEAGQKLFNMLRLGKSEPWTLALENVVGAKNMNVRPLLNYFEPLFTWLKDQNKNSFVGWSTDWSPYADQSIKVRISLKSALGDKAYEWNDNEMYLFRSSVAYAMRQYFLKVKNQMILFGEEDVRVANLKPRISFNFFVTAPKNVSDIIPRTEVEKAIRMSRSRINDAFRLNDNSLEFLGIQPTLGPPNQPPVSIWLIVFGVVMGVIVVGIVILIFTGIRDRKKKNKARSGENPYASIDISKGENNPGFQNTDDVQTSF

B1: SARS-CoV [change] (40150-V08B1) (ligand)
chain: not shown
**Q.** Does B1 bind?
**A.** binds
